Measurements published in paper PMC4987164 (Comparative biochemistry and physiology. Part D, Genomics & …, 2016).
Entries after “also recorded” stand apart in the source; their conditions may differ. Read-outs that look alike come from different tables or passages of the source. One block for each compound: values may come before it.

Columns and labels:
[1] = molecular target: T1, human estrogen receptor alpha ligand binding domain (ESR1-LBD) (Homo sapiens, UniProt P03372); experiment: Fluorescence polarization competitive ligand binding assay; settings: relative binding affinity calculated from IC50, E2 set at 100%
T1 sequence (P03372 311-547 limits assumed): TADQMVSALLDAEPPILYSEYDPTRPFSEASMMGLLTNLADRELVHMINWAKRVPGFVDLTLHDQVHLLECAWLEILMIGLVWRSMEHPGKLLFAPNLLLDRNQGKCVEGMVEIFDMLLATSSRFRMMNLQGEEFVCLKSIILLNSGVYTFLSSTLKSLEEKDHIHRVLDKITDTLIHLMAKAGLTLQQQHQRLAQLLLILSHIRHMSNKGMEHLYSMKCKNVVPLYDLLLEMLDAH

[2] = molecular target: T2, ESR1 ligand-binding domain (GST-ER LBD) / SRC-3 peptides (Homo sapiens, UniProt P03372); experiment: TR-FRET co-activator peptide recruitment assay, SRC-3 peptides; type: biochemical; settings: all SRC-3 peptides tested; listed as BPA
T2 sequence (P03372 311-547 limits assumed): T1 sequence (P03372 311-547 limits assumed)

ESR1 = molecular target: T3, ESR1 (Homo sapiens, UniProt P03372); experiment: Direct; settings: read-out: binding affinity (Kd) for the ESR1–Fl-E1 complex; saturation binding curves (data not shown)
T3 sequence (P03372 311-547 limits assumed): T1 sequence (P03372 311-547 limits assumed)

SRC-1 RID (Homo sapiens) [3] = molecular target: SRC-1 RID (Homo sapiens) (UniProt Q15788); settings: cited from earlier work
Chain of SRC-1 RID (Homo sapiens) (Q15788 570-780): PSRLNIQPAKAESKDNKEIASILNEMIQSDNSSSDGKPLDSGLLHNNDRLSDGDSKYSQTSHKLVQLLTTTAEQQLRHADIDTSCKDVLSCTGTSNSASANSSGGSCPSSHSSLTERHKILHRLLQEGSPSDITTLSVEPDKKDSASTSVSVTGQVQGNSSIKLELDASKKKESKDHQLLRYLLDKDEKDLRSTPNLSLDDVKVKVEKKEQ

SRC-1 RID (Homo sapiens) [4] = molecular target: SRC-1 RID (Homo sapiens) (UniProt Q15788); settings: cited from earlier work; remark: listed apart in the source
[5] = molecular target: ESR1 Ligand-binding domain tagged with glutathione-S-transferase (human); experiment: AlphaScreen or HTRF

Chain of ESR1 (P03372 whole entry): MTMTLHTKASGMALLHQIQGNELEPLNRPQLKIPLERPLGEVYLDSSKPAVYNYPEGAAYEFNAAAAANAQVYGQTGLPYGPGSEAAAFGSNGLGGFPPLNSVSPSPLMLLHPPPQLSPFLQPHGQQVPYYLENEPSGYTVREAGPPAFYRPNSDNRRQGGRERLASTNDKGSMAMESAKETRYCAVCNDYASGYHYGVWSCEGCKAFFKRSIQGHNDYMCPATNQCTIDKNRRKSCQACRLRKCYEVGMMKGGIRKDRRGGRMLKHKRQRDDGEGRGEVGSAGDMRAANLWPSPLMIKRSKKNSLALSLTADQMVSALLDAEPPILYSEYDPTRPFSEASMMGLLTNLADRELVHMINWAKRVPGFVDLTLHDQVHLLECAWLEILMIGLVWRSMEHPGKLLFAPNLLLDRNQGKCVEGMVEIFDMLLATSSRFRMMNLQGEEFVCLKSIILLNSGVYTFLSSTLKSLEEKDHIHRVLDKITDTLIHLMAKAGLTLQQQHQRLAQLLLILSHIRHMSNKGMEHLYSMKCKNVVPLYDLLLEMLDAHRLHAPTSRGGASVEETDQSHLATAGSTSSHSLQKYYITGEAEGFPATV

Compound: CC(C)(c1ccc(O)cc1)c1ccc(O)cc1 [Bisphenol-A, bisphenol-A]
RBA [1]: 0.29%
recruitment of SRC-3 peptides to ESR1 (in words) [2]: failed to induce interaction of the receptor with SRC-3 peptides; also recorded: failed to recruit any of the SRC-3 peptides

Compound: CC12CCC3c4ccc(O)cc4CCC3C1CCC2=NNC(=S)Nc1ccc2c(c1)C(=O)OC21c2ccc(O)cc2Oc2cc(O)ccc21 (stereo not shown) [Fl-E1]
Kd (ESR1): 2.3 nM

Compound: ESR1 (from UniProt P03372)
Kd (SRC-1 RID (Homo sapiens) [3]): 104 nM
Kd (SRC-1 RID (Homo sapiens) [4]): 21 nM

Compound: SRC-1(1) peptide
EC50 of 17β-estradiol for recruitment of the peptide [5]: 8.44 nM

Continued, values first:

EC50 of 17β-estradiol for recruitment of the peptide [5]: 5.08 nM
EC50 of bisphenol-A for recruitment of the peptide [5]: 32.3 nM
Compound: SRC-1(2) peptide

EC50 of 17β-estradiol for recruitment of the peptide [5]: 7.19 nM
Compound: SRC-3(2) peptide

EC50 of 17β-estradiol for recruitment of the peptide [5]: 2.74 nM
Compound: SRC-3(3) peptide
